Biological target: human albumin (Homo sapiens, UniProt P02768)
Assay: Release of CPT in reconstituted human albumin (PBS solution)
Format: in vitro ADME
Details: in the presence of albumin
Protocol: Samples were stored at −80° C. until the analysis.

human albumin, sequence (P02768 25-609): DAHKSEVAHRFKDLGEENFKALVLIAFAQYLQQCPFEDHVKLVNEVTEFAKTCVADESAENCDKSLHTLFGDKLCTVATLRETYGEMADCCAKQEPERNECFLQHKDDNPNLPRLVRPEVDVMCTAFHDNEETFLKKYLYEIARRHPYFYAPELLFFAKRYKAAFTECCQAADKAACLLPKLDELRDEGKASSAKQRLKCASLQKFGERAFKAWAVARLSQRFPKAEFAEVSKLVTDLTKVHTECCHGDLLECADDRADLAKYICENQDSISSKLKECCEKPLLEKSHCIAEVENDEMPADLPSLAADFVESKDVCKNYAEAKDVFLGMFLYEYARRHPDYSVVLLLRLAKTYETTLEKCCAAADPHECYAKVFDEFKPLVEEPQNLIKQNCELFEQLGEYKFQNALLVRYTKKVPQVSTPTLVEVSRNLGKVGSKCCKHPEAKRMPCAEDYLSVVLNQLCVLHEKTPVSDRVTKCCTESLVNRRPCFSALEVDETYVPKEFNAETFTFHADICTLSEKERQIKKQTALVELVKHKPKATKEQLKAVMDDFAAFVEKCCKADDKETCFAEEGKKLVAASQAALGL

Substance: Poly(CDDCys-PA-PEG)-Gly-CPT [HG6]
- CPT release rate compared with PBS: on the same order of magnitude as in PBS

Substance: Poly(CDDCys-PA-PEG)-GlyGlyGly-CPT [HGGG6]
- CPT release rate compared with PBS: on the same order of magnitude as in PBS

Source: patent publication US20150005230A1, “CYCLODEXTRIN-BASED POLYMERS FOR THERAPEUTIC DELIVERY” (priority 2012, published 2015)
